Consider one molecule from article PMC3334467 (Immunity, 2012).

Usually IC50 stands for the concentration that gives 50% inhibition. A low value points to inhibition by little substance.

The target in the assay is T1, MBP-AIM2 HIN domain (human, UniProt O14862 144-343).
T1 sequence (looked up): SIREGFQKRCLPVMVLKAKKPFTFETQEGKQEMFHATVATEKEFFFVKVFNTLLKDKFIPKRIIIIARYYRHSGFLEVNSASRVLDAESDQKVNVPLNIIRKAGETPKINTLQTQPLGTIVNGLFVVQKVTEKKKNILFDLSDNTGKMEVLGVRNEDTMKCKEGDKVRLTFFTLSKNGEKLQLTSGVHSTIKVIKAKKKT
As to the kind of experiment: fluorescence polarisation. A general note: In fluorescence polarisation assays a small probe gives low polarisation when free and higher when bound to something large.

B1: AIM2 PYD domain, wild type (residues 1–107), as used in the FP inhibition assay (domain or fragment, human, UniProt O14862 1-107, looked up)
chain: MESKYKEILLLTGLDNITDEELDRFKFFLSDEFNIATGKLHTANRIQVATLMIQNAGAVSAVMKTIRIFQKLNYMLLAKRLQEEKEKVDKQYKSVTKPKPLSQAEMS
As for B1, the IC50 is 11 µM.
